# Data taken from the DeepSol protein solubility set.
# Experiment: soluble on expression in E. coli; label from the status in PepcDB or PDB records
row,Sequence,soluble on expression in E. coli
1,VHFAPTITFLESPTSDHHWCIPFTVKGNPKPALQWFYNGAILNESKYICTKIHVTNHTEYHGCLQLDNPTHMNNGDYTLIAKNEYGKDEKQISAHFMGWPGID,soluble
2,MDEEYDAIVLGTGLKECIISGMLSVSGKKVLHIDRNNYYGGESASLTPLEQLYEKFHGPQAKPQQEMGRGRDWNVDLIPKFLMANGPLVKLLIHTGVTRYLEFKSIEASFVVKGGKIYKVPADEMEALATSLMGMFEKRRFKKFLVWVQQFDENKEDTWQGLDPHNSTMQQVYEKFGLDENTADFTGHALALYRDDEHKNQPYAPAVEKIRLYSDSLARYGKSPYLYPLYGLGELPQGFARLSAIYGGTYMLDKPVDEIVMENGKAIGVKCGDEIVRGKQIYCDPSYAKDRVKKTGQVVRAICLLNHPIPNTNDAQSCQIIIPQKQVGRHYDIYISCCSNTNMVTPKGWYLAMVSTTVETANPEAEVLPGLQLLGAIAEKFIQISDVYEPSDLGSESQIFISQSYDATTHFETTCKDVLNMFERGTTKEFDFTNITHLSLNDQE,not soluble
3,MGGSHHHHHHMASSVPIPGIKDISKLKFFYGFKYLWNPTVYNKIFDKLDLTKTYKHPEELKVLDLYPGVGIQSAIFYNKYCPRQYSLLEKRSSLYKFLNAKFEGSPLQILKRDPYDWSTYSNLIDEERIFVPEVQSSDHINDKFLTVANVTGEGSEGLIMQWLSCIGNKNWLYRFGKVKMLLWMPSTTARKLLARPGMHSRSKCSVVREAFTDTKLIAISDANELKGFDSQCIEEWDPILFSAAEIWPTKGKPIALVEMDPIDFDFDVDNWDYVTRHLMILKRTPLNTVMDSLGHGGQQYFNSRITDKDLLKKCPIDLTNDEFIYLTKLFMEWPFKPDILMDFVDMYQTEHSG,soluble
4,MGSLEKFNLIDEPWIPVLKGGRVVEVGIGEALLRAHEFARIETPSPLEEAVLHRLLLAVLHRALSGPRCPEDVLDWWRKGGFPQDPIRDYLNRFRDRFFLFHPEAPFLQVADLPEENPLPWSKLLPELASGNNPTLFDHTTEENLPKATYAQAARALLVHQAFAPGGLLRRYGVGSAKDAPVARPALFLPTGQNLLETLLLNLVPYTPEDDAPIWEVPPLRLGDLEGARTKWPLTGRTRVYTWPARGVRLLDEGDGVRFMGYGPGVEPLEATHRDPMVAQRLDAKGNLLVLRLSEERSFWRDFSAMLPRQGGKVAATLEHAENLQGELEDEGLEGRITLRVLGQVSDQAKVLDIRREVYPLPSGLLTPKAEENLEKALKMAEELGQGLKHLAQEVAKAVVGERDRGHGRSPYLEELTKLANSLPLERLYWHALDGAFPRFFARVEEEASLDLWREALRGAALEAWKATRRFLGTGARHLKALAQGEQEFGRLLGELGEEVRT,soluble
5,MNRKKLAAYGQEFEDDDEEGSSVSKKPTQIHEEIATDEKGKRRFHGAFTGGFSAGYWNTVGSKQGWVPQVFSSSRNERGEQIKQRAEDFMDAEDLGEYGIGNRSIKQTAAFGEGAGQKRKMAWERDTTSISTITQMFEDVVKPVSNSIGVRMLRSMGWREGRGIGLANVKQKQKRGGESSEAQFDREQASKVAPAYEFSNEDALVKQLTPLTGTHGIGYQGLRKTTVLNESYGRTTLALKSGKKNSKGIKGQAFGVGAFEEEDESVYSNYDLSQFDFSLDVAGASEESNLKTQKLVTAFELQPKRLNPRKFYAPPRVPPNFRGDHRPIPMDISKLPQMMKNDVKHMNAEQRAKFLGEDRVNALEIGGKSSKKPTERRSRWDIKANEVEKRDNERGGGEAEEDRDRRQRNRIEFPDEPMRQARFKEFLHYIRRGLPYPQPTDLTVWEWEWEKKEFESKLTSDERGMLPEVQSRAQPLAKTAIAAPIHEMMASKFVKEAGGDLKVGTKDEDKLAAVKMEMFGEKTRQSFDWYPDNLLAKRFNVPHPYPGSDTVGVPALQKTDWKRKDRLADIGGVSATLGLPNTANEIEMRERLLKSRAQRGAEEKKRNQSDDDDEKEYDDKDSDEEEENEAEPNNQKVDKAPKSFFDFIFGDGDGADSDESNSEDEEAEEKERQEILKKREEDLKRRREIVEKKEEENRKRVEKELKELENRDLLRVSKQQEDDDIQIIDETSASSFGPALPPSSKPVLSKTEVLKLLEKNMKKKKKDKKEKEKKKKSKKSKKSKKEKKTKRKHSSSSADDSGDNSDGWEEKK,not soluble
6,MESENIISAADKARILAEALPYIRRFSGSVAVIKYGGNAMTEPALKEGFARDVVLLKLVGIHPVIVHGGGPQINAMLEKVGKKGEFVQGMRVTDKEAMDIVEMVLGGHVNKEIVSMINTYGGHAVGVSGRDDHFIKAKKLLIDTPEQNGVDIGQVGTVESIDTGLVKGLIERGCIPVVAPVGVGEKGEAFNINADLVAGKLAEELNAEKLLMMTNIAGVMDKTGNLLTKLTPKRIDELIADGTLYGGMLPKIASAVEAAVNGVKATHIIDGRLPNALLLEIFTDAGIGSMILGGGEDA,not soluble
